In data set [1] the target is T1, recombinant CaRF (Figs 5 and 6) (UniProt Q8VHI4 1-689).
T1 sequence: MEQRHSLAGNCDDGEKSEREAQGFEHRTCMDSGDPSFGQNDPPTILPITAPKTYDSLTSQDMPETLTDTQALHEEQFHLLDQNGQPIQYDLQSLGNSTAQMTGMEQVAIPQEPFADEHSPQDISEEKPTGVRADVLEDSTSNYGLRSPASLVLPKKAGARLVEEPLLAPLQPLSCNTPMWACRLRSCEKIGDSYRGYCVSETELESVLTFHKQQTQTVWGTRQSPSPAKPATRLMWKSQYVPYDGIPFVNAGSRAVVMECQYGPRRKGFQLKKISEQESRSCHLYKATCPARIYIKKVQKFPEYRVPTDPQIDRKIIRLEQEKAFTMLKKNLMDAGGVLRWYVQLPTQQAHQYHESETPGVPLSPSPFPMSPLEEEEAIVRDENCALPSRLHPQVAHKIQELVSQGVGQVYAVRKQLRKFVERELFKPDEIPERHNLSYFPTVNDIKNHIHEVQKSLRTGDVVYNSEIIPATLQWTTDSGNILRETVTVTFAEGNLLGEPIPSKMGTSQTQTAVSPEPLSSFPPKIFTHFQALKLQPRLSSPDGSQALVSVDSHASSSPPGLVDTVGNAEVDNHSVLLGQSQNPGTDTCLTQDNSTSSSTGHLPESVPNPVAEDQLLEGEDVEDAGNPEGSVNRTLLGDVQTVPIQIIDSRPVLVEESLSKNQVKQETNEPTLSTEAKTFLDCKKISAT
The data set can be described thus: competition; cCaRE probe, 100-fold excess; higher affinity than CaRF1; EMSA: 2 uL TNT or purified CaRF with 50 fmol 32P probe, 6% non-denaturing gel; competitors 50-150-fold excess, 30 min pre-incubation; buffer, pH and temperature not stated (cited ref 14). The note with it: protein: recombinant; blunt. A general note: A gel shift assay detects complexes by their altered migration in electrophoresis.

Data set [2] concerns the target T2, CaRF (TNT) (Homo sapiens, UniProt Q8N187 1-725).
T2 sequence: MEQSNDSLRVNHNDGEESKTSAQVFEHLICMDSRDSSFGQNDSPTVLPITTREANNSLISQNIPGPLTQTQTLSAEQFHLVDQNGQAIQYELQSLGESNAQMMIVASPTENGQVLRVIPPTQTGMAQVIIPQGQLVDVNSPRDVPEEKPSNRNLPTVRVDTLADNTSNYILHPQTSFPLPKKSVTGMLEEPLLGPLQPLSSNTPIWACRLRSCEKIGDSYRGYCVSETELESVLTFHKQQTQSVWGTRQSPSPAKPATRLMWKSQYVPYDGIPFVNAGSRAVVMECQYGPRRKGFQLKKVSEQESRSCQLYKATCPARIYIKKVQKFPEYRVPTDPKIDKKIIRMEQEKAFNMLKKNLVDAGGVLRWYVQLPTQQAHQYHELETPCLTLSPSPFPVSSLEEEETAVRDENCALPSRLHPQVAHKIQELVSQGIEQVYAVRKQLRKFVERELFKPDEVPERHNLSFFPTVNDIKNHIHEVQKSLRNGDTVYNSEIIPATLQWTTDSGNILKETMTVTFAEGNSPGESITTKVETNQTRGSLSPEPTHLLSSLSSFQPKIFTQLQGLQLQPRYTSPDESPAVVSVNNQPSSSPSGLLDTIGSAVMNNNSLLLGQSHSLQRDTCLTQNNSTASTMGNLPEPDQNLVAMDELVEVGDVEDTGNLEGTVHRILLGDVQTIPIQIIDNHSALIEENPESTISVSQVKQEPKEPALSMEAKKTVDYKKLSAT
As to the kind of experiment: EMSA; EMSA: 2 uL TNT or purified CaRF with 50 fmol 32P probe, 6% non-denaturing gel; competitors 50-150-fold excess, 30 min pre-incubation; buffer, pH and temperature not stated (cited ref 14). As to conditions: protein: ivt; tags: N-terminal FLAG (DYKDDDDK); label: 32P when probe; blunt.

Data set [3] concerns the target T3, CaRF (E. coli) (Mus musculus (Methods); human per Fig 2 …, UniProt Q8VHI4 1-689).
T3 sequence: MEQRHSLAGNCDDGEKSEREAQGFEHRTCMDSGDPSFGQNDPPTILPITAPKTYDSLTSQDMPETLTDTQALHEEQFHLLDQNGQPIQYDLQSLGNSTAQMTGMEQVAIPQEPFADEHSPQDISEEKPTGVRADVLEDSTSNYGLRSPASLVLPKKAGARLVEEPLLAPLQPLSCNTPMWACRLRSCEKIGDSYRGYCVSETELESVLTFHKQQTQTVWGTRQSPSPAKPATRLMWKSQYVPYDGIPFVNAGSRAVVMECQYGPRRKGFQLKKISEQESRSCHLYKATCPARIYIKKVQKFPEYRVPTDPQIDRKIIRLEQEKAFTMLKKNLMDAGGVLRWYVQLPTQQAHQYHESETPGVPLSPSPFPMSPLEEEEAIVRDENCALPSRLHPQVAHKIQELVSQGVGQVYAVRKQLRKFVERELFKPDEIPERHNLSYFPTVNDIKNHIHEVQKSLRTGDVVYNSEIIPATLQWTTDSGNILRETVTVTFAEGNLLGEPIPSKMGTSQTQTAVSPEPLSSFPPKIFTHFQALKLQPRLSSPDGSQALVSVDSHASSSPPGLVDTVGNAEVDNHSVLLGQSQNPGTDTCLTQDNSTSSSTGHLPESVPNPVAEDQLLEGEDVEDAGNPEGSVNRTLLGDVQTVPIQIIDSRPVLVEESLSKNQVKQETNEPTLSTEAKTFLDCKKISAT
Described as above. The note with it: protein: recombinant; label: 32P when probe; blunt.

Data set [4] has as its target T1, recombinant CaRF (Figs 5 and 6). The data set is described as above. As to conditions: protein: recombinant; label: 32P when probe; blunt.
Data set [5] shares this target. The data set can be described thus: competition; camCaRE probe, 50-100-fold excess; EMSA: 2 uL TNT or purified CaRF with 50 fmol 32P probe, 6% non-denaturing gel; competitors 50-150-fold excess, 30 min pre-incubation; buffer, pH and temperature not stated (cited ref 14). As to conditions: protein: recombinant; blunt.
The target of data set [6] is T2, CaRF (TNT). As to the kind of experiment: competition; CaRE1 probe, 50-fold excess; EMSA: 2 uL TNT or purified CaRF with 50 fmol 32P probe, 6% non-denaturing gel; competitors 50-150-fold excess, 30 min pre-incubation; buffer, pH and temperature not stated (cited ref 14). As to conditions: protein: ivt; tags: N-terminal FLAG (DYKDDDDK); blunt.
Data set [7] has as its target T3, CaRF (E. coli). Described as above. As to conditions: protein: recombinant; blunt.

B1: CaRF2 (dsDNA)
DNA 1: TGAGTAGTCTCGTTTTGAATTTTCTCC
DNA 2: GGAGAAAATTCAAAACGAGACTACTCA
With B1, in data set [1], the binding result is listed as “binds”.

B2: CaRE1 (dsDNA)
DNA 1: GAGTGTCTATTTCGAGGCAGAGGAGG
DNA 2: CCTCCTCTGCCTCGAAATAGACACTC
Take B2: the binding result in data set [2] and in data set [3] was “binds” each time.

B3: camCaRE (dsDNA)
DNA 1: TCAAAGCGAGGCAGA
DNA 2: TCTGCCTCGCTTTGA
For B3, the binding result in data set [4] is “binds”.

B4: mCaRE1 (mCaRE) (dsDNA)
DNA 1: GAGTGTCTTCCGCCAGGCAGAGGAGG
DNA 2: CCTCCTCTGCCTGGCGGAAGACACTC
For B4, the binding result in data set [5], in data set [6] and in data set [7] was “no binding” throughout.

(Values after paper PMC2877716, “Genome-Wide Identification of Calcium-Response Factor (CaRF) Binding Sites Predicts a Role in Regulation of Neuronal Signaling Pathways”.)
